Experimental data published in patent US20180303952A1 (CYTOMX THERAPEUTICS, published 2018).
Several values for one entry are separate records, joined by “and”; a condition that tells them apart may be missing. Identical values can stand only once. Like-named read-outs stand apart in the source and are kept apart here.

Tests used:
[1] = molecular target: T1, human CD147 protein (adsorbed to ELISA plates) (human, UniProt P35613-2 22-205, limits assumed); test: ELISA, human CD147 protein adsorbed to plate, anti-human Fab-peroxidase detection; apparent KD
T1 construct: also called human CD147 polypeptide; Basigin
T1 sequence (looked up): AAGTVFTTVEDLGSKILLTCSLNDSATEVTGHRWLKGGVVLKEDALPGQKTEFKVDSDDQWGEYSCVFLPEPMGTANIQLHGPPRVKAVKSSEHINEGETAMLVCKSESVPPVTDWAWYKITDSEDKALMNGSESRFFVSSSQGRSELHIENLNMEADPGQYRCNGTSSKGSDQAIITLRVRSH
Protocol: The antibody of the present disclosure that was assayed in this exemplary study was hu 3A11 Lc1/Hc1 (VL of SEQ ID NO: 5 and VH of SEQ ID NO: 1). Mouse anti-human CD147 monoclonal antibody 3A11 (VL of SEQ ID NO: 8 and VH of SEQ ID NO: 4) was assayed as a reference. Using a standard ELISA protocol, human CD147 protein was absorbed to ELISA plates and subsequently incubated with the indicated concentration of antibody of the present disclosure. Bound humanized antibody of the present disclosure was detected with anti-human Fab-peroxidase secondary antibody and the mouse 3A11 monoclonal antibody was detected with anti-mouse Fc-peroxidase secondary antibody, and Ultra TMB detection (Thermo Fisher Scientific).

[2] = molecular target: T1, human CD147 protein (adsorbed to ELISA …); test: as above; remark: listed apart in the source
Protocol: (§1) For the exemplary assay depicted in FIGS. 7A-7C, standard ELISA protocol was used, in which human CD147 protein was absorbed to ELISA plates and subsequently incubated with the indicated concentration of antibody of the present disclosure. Bound humanized activatable antibody of the present disclosure was detected with anti-human Fab-peroxidase secondary antibody and Ultra TMB detection (Thermo Fisher Scientific).

[3] = molecular target: T2, recombinant human CD147-Fc chimeric protein deglycosylated with Protein Deglycosylation Mix II (New England … (human, UniProt P35613-2 25-205, N- and simple O-linked carbohydrates removed enzymatically (NEB Protein Deglycosylation Mix II, about 16 hrs at 37 C))); test: ELISA, deglycosylated CD147-Fc adsorbed at 1 ug/mL, anti-human Fab-peroxidase detection; apparent KD
T2 construct: Same bought protein as m9 after deglycosylation (migrates at 52 and 48 kDa); also called CD147-Fc (deglyc-NEB); Fc part of the bought chimera not given
T2 sequence (looked up): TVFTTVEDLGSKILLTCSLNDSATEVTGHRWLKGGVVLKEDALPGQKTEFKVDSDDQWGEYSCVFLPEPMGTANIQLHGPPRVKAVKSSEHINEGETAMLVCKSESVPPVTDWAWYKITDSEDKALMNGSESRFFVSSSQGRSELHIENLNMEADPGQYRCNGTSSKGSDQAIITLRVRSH
Protocol: (§2) In this example, recombinant human CD147-Fc chimeric protein (R&D Systems, cat. no. 927-EMN-050) was deglycosylated of N- and simple O-linked carbohydrates using the Protein Deglycosylation Mix II (˜16 hrs incubation at 37° C.; New England Biolabs, cat. no. P6044S) or the Enzymatic Protein Deglycosylation Kit (˜1.5 days+incubation at 37° C.; Sigma-Aldrich, cat. no. EDEGLY) in accordance with their respective protocols. […] Bovine fetuin, which includes both N- and O-linked carbohydrates, was used a control for the extent of deglycosylation.
(§3) After buffer exchange with PBS, the deglycosylated or glycosylated proteins were adsorbed onto ELISA plates at 1 μg/mL. […] Bound humanized antibody of the present disclosure was detected with anti-human Fab-peroxidase secondary antibody and the mouse 3A11 monoclonal antibody was detected with anti-mouse Fc-peroxidase secondary antibody, and Ultra TMB detection (Thermo Fisher Scientific).

[4] = molecular target: T3, recombinant human CD147-Fc chimeric protein deglycosylated with Enzymatic Protein Deglycosylation Kit … (human, UniProt P35613-2 25-205, N- and simple O-linked carbohydrates removed enzymatically (Sigma-Aldrich EDEGLY kit, about 1.5 days at 37 C)); test: as above
T3 construct: Same bought protein as m9 after deglycosylation (migrates at 52 and 48 kDa); also called CD147-Fc (deglyc-Sigma); Fc part of the bought chimera not given
T3 sequence (looked up): T2 sequence (looked up)
Protocol: as §2, §3

[5] = molecular target: T1, human CD147 protein (adsorbed to ELISA …); test: ELISA, human CD147 protein adsorbed to plate, anti-human Fab-peroxidase detection; apparent KD; remark: listed apart in the source
Protocol: as §1, with “Using a” for “For the exemplary assay depicted in FIGS. 7A-7C,”, “protocol,” for “protocol was used, in which”

[6] = molecular target: T4, recombinant human CD147-Fc chimeric protein (glycosylated) (human, UniProt P35613-2 25-205, glycosylated as supplied (migrates at about 62 kDa)); test: ELISA, CD147-Fc adsorbed at 1 ug/mL, anti-human Fab-peroxidase detection; apparent KD
T4 construct: Bought protein; also called CD147-Fc (glycosylated); R&D Systems cat. no; 927-EMN-050; Fc part of the bought chimera not given
T4 sequence (looked up): T2 sequence (looked up)
Protocol: as §3

[7] = molecular target: T1, human CD147 protein (adsorbed to ELISA …); test: ELISA, human CD147 protein adsorbed to plate, anti-human Fab-peroxidase detection; apparent KD; remark: listed apart in the source
Protocol: The antibodies of the present disclosure that were assayed in this exemplary study were hu 3A11 Lc1/hu 3A11 Hc1 (VL of SEQ ID NO: 5 and VH of SEQ ID NO: 1), hu 3A11 Lc2/hu 3A11 Hc2 (VL of SEQ ID NO: 6 and VH of SEQ ID NO: 2), hu 3A11 Lc4/hu 3A11 Hc2 (VL of SEQ ID NO: 8 and VH of SEQ ID NO: 2). Using a standard ELISA protocol, human CD147 protein was absorbed to ELISA plates and subsequently incubated with the indicated concentration of antibody of the present disclosure. Bound humanized antibody of the present disclosure was detected with anti-human Fab-peroxidase secondary antibody, and Ultra TMB detection (Thermo Fisher Scientific).

[8] = molecular target: T5, cynomolgus monkey CD147 on the cynomolgus primary kidney epithelial cell line (cynomolgus monkey); test: FACS on cynomolgus primary kidney epithelial cell line, Alexa Fluor 647 goat anti-human IgG detection
T5 construct: whole, on cells; also called cynomolgus CD147
Protocol: In this study, the binding of the humanized anti-human CD147 antibody of the present disclosure to the indicated cell lines were performed using a standard FACS labelling method. Briefly, cells were labeled with the indicated antibodies of the present disclosure: anti-human CD147 antibody (humanized anti-human CD147 hu3A11 antibody; VH of SEQ ID NO: 1, VL of SEQ ID NO: 5) at the indicated concentrations and subsequently detected with an Alexa Fluor 647 labeled goat anti-human IgG secondary antibody.

B1: humanized anti-human CD147 monoclonal antibody hu 3A11 Lc1/Hc1 (antibody, V domains shown)
VH: EVQLVESGGGLVQPGGSLRLSCAASGFTFSNYWMDWVRQAPGKGLEWVGEIRLKSYNYATHYAASVKGRFTISRDDSKNSVYLQMNSLKTEDTAVYYCTAAGTDYWGQGTLVTVSS
VL: DIQMTQSPSSLSASVGDRVTITCRASQSVRTDVGWYQQKPGKAPKLLIYYSSNRYTGVPSRFSGSGSGTDFTLTISSLQPEDFATYYCQQDYSSPYTFGQGTKLEIK
notes: Detected with anti-human Fab or anti-human IgG secondary antibodies; also called hu 3A11 (hu Lc1/hu Hc1); hu 3A11 (hu Hc1/Lc1)
Which results are given for B1?
Kd [1]: 0.71 nM; Kd [2]: 0.45 nM and 0.59 nM; Kd [3]: 0.185 nM; Kd [4]: 0.175 nM; Kd [5]: 0.14 nM; Kd [6]: 0.191 nM; Kd [7]: 0.852 nM; Kd [8]: 1.3 nM
